From US20250381305A1, “METHOD FOR TREATING A PARKINSON'S DISEASE” (SINEUGENE THERAPEUTICS CO., LTD., priority 2022, published 2025)
Numbering of substitutions follows the chain as printed. Names may count otherwise. “Also recorded” adds a separate entry of the source.

B1: C242A: Flag-tagged TRIM72 mutant, cysteine at position 242 substituted by alanine; blocks oligomer formation (protein, UniProt Q1XH17 1-477, looked up, variant C242A)
Tripartite motif-containing …: MSAAPGLLRQELSCPLCLQLFDAPVTAECGHSFCRACLIRVAGEPAADGTVACPCCQAPTRPQALSTNLQLSRLVEGLAQVPQGHCEEHLDPLSIYCEQDRTLVCGVCASLGSHRGHRLLPAAEAQARLKTQLPQQKMQLQEACMRKEKTVAVLEHQLVEVEETVRQFRGAVGEQLGKMRMFLAALESSLDREAERVRGDAGVALRRELSSLNSYLEQLRQMEKVLEEVADKPQTEFLMKFALVTSRLQKILSESPPPARLDIQLPVISDDFKFQVWKKMFRALMPALEELTFDPSSAHPSLVVSSSGRRVECSDQKAPPAGEDTRQFDKAVAVVAQQLLSQGEHYWEVEVGDKPRWALGVMAADASRRGRLHAVPSQGLWLLGLRDGKILEAHVEAKEPRALRTPERPPARIGLYLSFADGVLAFYDASNPDVLTPIFSFHERLPGPVYPIFDVCWHDKGKNAQPLLLVGPEQEQA
modifications: Flag tag
B2: C14A: Flag-tagged TRIM72 mutant, cysteine at position 14 substituted by alanine; E3 ligase inactive (protein, UniProt Q1XH17 1-477, looked up, variant C14A)
Tripartite motif-containing …: B1 Tripartite motif-containing … with C14A, A242C
modifications: Flag tag
B3: TRIM40: other TRIM protein overexpressed in N2a cell line by scAAV9 infection, as comparison (protein, UniProt Q3UWA4 1-246, looked up)
chain: MGSLDKDNQDICPICLDPLKEAVSTDCRHLFCRMCLTQHMDKASVSGILSCPVCRKPCSEGVLGDNYICHTHQKRVRRFCEASGHLLCEECLQSPEHQSHTELSIENAISHYKERLNRRSRKLRKDLGNLQQLKAQEKKMLQALQVDCECHRLRTDLQNQDQTKEQLKALPWHWLDQEDLPEEVAKIFSFSEAVTQLSILVSGLERMAKDLDASTLKDASDLLDRSAPQKLEGLLSRVSPAGPKLS
modifications: full-length
notes: other TRIM protein overexpressed in N2a cell line by scAAV9 infection, as comparison
B4: TRIM72: full-length TRIM72 protein with Ring finger, B-box, coiled-coil and PRYSPRY domains, overexpressed by lentivirus or scAAV9 (protein, listed as Homo sapiens)
chain: MSAAPGLLHQELSCPLCLQLFDAPVTAECGHSFCRACLGRVAGEPAADGTVLCPCCQAPTRPQALSTNLQLARLVEGLAQVPQGHCEEHLDPLSIYCEQDRALVCGVCASLGSHRGHRLLPAAEAHARLKTQLPQQKLQLQEACMRKEKSVAVLEHQLVEVEETVRQFRGAVGEQLGKMRVFLAALEGSLDREAERVRGEAGVALRRELGSLNSYLEQLRQMEKVLEEVADKPQTEFLMKYCLVTSRLQKILAESPPPARLDIQLPIISDDFKFQVWRKMFRALMPALEELTFDPSSAHPSLVVSSSGRRVECSEQKAPPAGEDPRQFDKAVAVVAHQQLSEGEHYWEVDVGDKPRWALGVIAAEAPRRGRLHAVPSQGLWLLGLREGKILEAHVEAKEPRALRSPERRPTRIGLYLSFGDGVLSFYDASDADALVPLFAFHERLPRPVYPFFDVCWHDKGKNAQPLLLVGPEGAEA
B5: coiled-coil single domain: TRIM72 truncation with the coiled-coil domain only, 135aa-232aa (probably SEQ ID NO: 5) (protein)
chain: QQKLQLQEACMRKEKSVAVLEHQLVEVEETVRQFRGAVGEQLGKMRVFLAALEGSLDREAERVRGEAGVALRRELGSLNSYLEQLRQMEKVLEEVADK
modifications: human TRIM72 coiled-coil domain (135-232 aa)
B6: Coiled-PRYSPRY: TRIM72 truncation with coiled-coil and PRYSPRY domains, expressed by scAAV9 (probably SEQ ID NO: 11) (protein)
chain: QQKLQLQEACMRKEKSVAVLEHQLVEVEETVRQFRGAVGEQLGKMRVFLAALEGSLDREAERVRGEAGVALRRELGSLNSYLEQLRQMEKVLEEVADKPQTEFLMKYCLVTSRLQKILAESPPPARLDIQLPIISDDFKFQVWRKMFRALMPALEELTFDPSSAHPSLVVSSSGRRVECSEQKAPPAGEDPRQFDKAVAVVAHQQLSEGEHYWEVDVGDKPRWALGVIAAEAPRRGRLHAVPSQGLWLLGLREGKILEAHVEAKEPRALRSPERRPTRIGLYLSFGDGVLSFYDASDADALVPLFAFHERLPRPVYPFFDVCWHDKGKNAQPLLLV
modifications: expressed by scAAV9; TRIM72 coiled-coil domain plus PRYSPRY domain (135-470aa)
B7: PRYSPRY single domain: TRIM72 truncation with the PRYSPRY domain only, 278aa-470aa (probably SEQ ID NO: 6) (protein)
chain: RKMFRALMPALEELTFDPSSAHPSLVVSSSGRRVECSEQKAPPAGEDPRQFDKAVAVVAHQQLSEGEHYWEVDVGDKPRWALGVIAAEAPRRGRLHAVPSQGLWLLGLREGKILEAHVEAKEPRALRSPERRPTRIGLYLSFGDGVLSFYDASDADALVPLFAFHERLPRPVYPFFDVCWHDKGKNAQPLLLV
modifications: human TRIM72 PRYSPRY domain (278-470 aa)

system: 293 FT; assay: Cell viability after stress challenge, TRIM72 point mutants; type: cell-based; conditions: Flag-tagged point mutants vs wildtype; oxidative stress
Procedure: For TRIM72 stable expression cell line construction, DNA fragments of the series of Flag-tagged TRIM72 mutants or domain deletion or single domain were amplified from the corresponding TRIM72 expression vector by PCR and inserted into pLJM1-EGFP lentiviral vector between BsrGI and EcoRI sites to generate the series of Flag-tagged TRIM72 mutants or domain deletion or single domain fused with EGFP in lentiviral vector.
Cell viability was assessed using CCK-8. Cells were seeded in a 96-well plate at a density of 1.5×10^3cells per well for Arsenite treatment or 7×10^3 cells per well for H2O2 treatment. Arsenite (Sigma) was added into each well at concentration of 0.125 mM, 0.25 mM or 0.5 mM, and washed the cells after 2 hours incubation at 37° C. For H2O2-treatment experiment, scAAV9 infection (estimated multiplicity of infection (MOI): 10,000 vg/cell) was done for 24 hours at 17 hours after cell seeding. Then, H2O2 was added into each well at concentration of 300 μM, and washed the cells after 1 hours incubation at 37° C. […] After another 2 hours of incubation at 37° C., the optical density (OD) value of each well was measured using a microplate reader with an excitation wavelength of 450 nm. The cell viability of 293 FT was calculated. […]
Previous study determined that TRIM72 senses changes in the oxidative environment and forms oligomer complex to complete membrane repair. […]

Molecule	cell viability after stress challenge (protective effect of TRIM72 mutants)
B1	abolished the anti-stress effect of TRIM72; also recorded: blocked TRIM72 protective effect
B2	reserved equal protective effect to wildtype

system: N2a cell line; assay: CCK-8 cell viability after H2O2 treatment, expression by scAAV9 infection; type: cell-based; conditions: scAAV9 infection MOI 10,000 vg/cell, H2O2 300 μM, 1 hour
Procedure: Cell viability was assessed using CCK-8. Cells were seeded in a 96-well plate at a density of 1.5×10^3cells per well for Arsenite treatment or 7×10^3 cells per well for H2O2 treatment. Arsenite (Sigma) was added into each well at concentration of 0.125 mM, 0.25 mM or 0.5 mM, and washed the cells after 2 hours incubation at 37° C. For H2O2-treatment experiment, scAAV9 infection (estimated multiplicity of infection (MOI): 10,000 vg/cell) was done for 24 hours at 17 hours after cell seeding. Then, H2O2 was added into each well at concentration of 300 μM, and washed the cells after 1 hours incubation at 37° C. When the cell has been processed by Arsenite or H202. a total of 10 μL of CCK-8 solution (Yeasen) was added to each well. After another 2 hours of incubation at 37° C., the optical density (OD) value of each well was measured using a microplate reader with an excitation wavelength of 450 nm. The cell viability of 293 FT was calculated. The experiment was repeated at least three times to obtain the mean value.
To further investigate which key domains of TRIM72 protein are necessary to protect neurons, different domain-deleted TRIM72 were constructed and overexpressed in N2a cell line by scAAV9 infection (FIG. 1). CCK-8 was used to measure the cell viability after H2O2 treatment. Indeed, cell viability was decreased after H2O2 treatment (FIG. 10).
CCK-8 was used to measure the cell viability after H2O2 treatment.

Molecule	cell viability under H2O2 stress (protective effect)
B3	rather than TRIM40 elicit protective effects from oxidative stress
B4	elicit protective effects from oxidative stress
B5	not the coiled-coil single domain was sufficient to protect cells from oxidative stress
B6	sufficient to protect cells from oxidative stress
B7	sufficient to protect cells from oxidative stress
